B1: Ubiquitin-protein ligase residues 30 to 86; numbered along this chain, Q05086 (parent)
chain: KHLIERYYHQLTEGCGNEACTNEFCASCPTFLRMDNNAAAIKALELYKINAKLCDPH

Variants of: B1
Test: abundance fitness (aPCA) (normalised: wild type 0, dead -1); higher = more abundant; growth selection in yeast, the domain comes from the species named
Conditions: Homo sapiens

Abundance fitness: each site, then its substitutions
H2: S 0.019, K -0.021, D 0.082
L3: N -0.057, P -0.204, V -0.474, Q 0.014, K 0.003, A -0.334, D -0.264, E -0.206, M 0.048, R -0.077, C -0.005, G -0.129, I -0.039, Y -0.021, S -0.004, W -0.049
C15: R -0.912, Y -0.944, N -0.981, A -0.789, F -0.885, E -0.943, L -1, G -0.973, Q -0.85, D -0.796, H -0.576, P -1.09, M -1.04, W -0.969, T -0.833, S -1.07
K1: M -0.253, F -0.53, C -0.33, L -0.577, V -0.517, T -0.1, A -0.757, Y -0.31, E -0.368, N -0.397, S -0.833, R -0.102, P -0.719, G -0.476
E18: D -0.004, I -0.075, T -0.003, A 0, M 0.006, F -0.181, K -0.089, Y -0.071, H 0.014, S 0.001, N 0.061, R -0.066, L -0.056, C -0.044, W -0.151, Q 0.076, V -0.023, G -0.054
T12: P -0.998, F -0.204, Q -0.079, W -0.359, S -0.039, I -0.062, E -0.355, A -0.128, V -0.028, M 0.03, L -0.015, G -0.569, R -0.073, D -0.353
L11: S -0.425, P -0.865, D -0.834, R -0.872, N -0.774, T -0.201, E -0.843, M -0.14, V -0.036, Q -0.41, Y -0.566, G -0.681, K -0.848, C -0.153, W -0.904
E5: H -0.04, F -0.112, L -0.123, K 0.037, P -0.068, W -0.08, T -0.005, I -0.142, G -0.042, N 0.058, Q 0.037, S -0.01, V -0.211, A -0.116, C -0.125, R 0.015, M -0.105
R6: W -0.292, L -0.097, M -0.079, Y -0.209, N -0.006, A -0.021, I -0.151, H -0.027, E -0.078, K 0.029, T -0.017, S -0.026, F -0.147, V -0.044, D -0.028, C -0.271, P 0.011
H9: S 0.017, F -0.12, G -0.008, D -0.189, Q 0.05, C -0.034, K 0.077, L 0.093, V -0.014, W -0.055, E -0.131, M -0.013, I 0.015, T 0.032, R 0.025, Y -0.123, P -0.771, A 0.007
N17: I -0.067, W 0.005, A -0.001, T 0.014, R -0.042, F -0.091, S -0.034, M -0.096, C -0.037, L -0.071, Q -0.087, K 0.027, V -0.05, P -0.091, G -0.008, D -0.04, E -0.029, H -0.008, Y -0.042
